Test results taken from patent publication US20170202908A1 (ASAHI GROUP, published 2017).

Molecular target: T1, Fc-mUmod, fusion protein of the mouse Umod protein (positions 1-616 of SEQ ID NO: 8) and the Fc domain of … (mouse; human, UniProt Q91X17 25-616)
T1 construct: Secreted from HEK293T cells, purified on protein A and immobilized on a 96-well plate; Positions 1-616 are the cloned range and start at the initiator Met; also called uromodulin; not shown: Fc domain of human IgG1
Assay: whole bacterial cells on plate-immobilized Fc-mUmod; bound cells counted by 16S rRNA real-time PCR, hIgG background subtracted
Description: Next, the Fc-mUmod protein and hIgG as a control Fc protein were respectively diluted with PBS so as to result in a concentration of 5 μg/ml, and the resultants were applied to a 96-well plate (50 μl per well) and immobilized at 4° C. overnight. Each well was washed three times with 200 μl of PBS. Then, a 1% BSA/PBS solution (200 μl) was applied thereto for blocking at room temperature for 2 hours. Then, the blocking solution was removed. Thereafter, bacterial cells of each test lactic acid bacterium, which had been suspended in PBS so as to result in a concentration of 10⁶ cells/50 μl, were applied thereto (50 μl per well) and incubated at room temperature for 2 hours. Each well was washed five times with 200 μl of PBS and then PBS was completely removed.
DNA was extracted from bacterial cells bound to each plate using NucleoSpin™ Tissue (Takara) in accordance with the provided protocol. Real-time PCR was performed using the extracted DNA as a template and universal primers targeting the 16S rRNA gene (F: 5′-[…]-3′ (SEQ ID NO: 12), R: 5′-[…]-3′ (SEQ ID NO: 13)). The number of bacterial cells bound to Fc-mUmod and the number of bacterial cells bound to hIgG were quantitatively determined in accordance with the protocol provided with SYBR™ Premix Ex Taq™ II (Tli RNaseH Plus) (Takara).

T1 sequence (Q91X17 25-616): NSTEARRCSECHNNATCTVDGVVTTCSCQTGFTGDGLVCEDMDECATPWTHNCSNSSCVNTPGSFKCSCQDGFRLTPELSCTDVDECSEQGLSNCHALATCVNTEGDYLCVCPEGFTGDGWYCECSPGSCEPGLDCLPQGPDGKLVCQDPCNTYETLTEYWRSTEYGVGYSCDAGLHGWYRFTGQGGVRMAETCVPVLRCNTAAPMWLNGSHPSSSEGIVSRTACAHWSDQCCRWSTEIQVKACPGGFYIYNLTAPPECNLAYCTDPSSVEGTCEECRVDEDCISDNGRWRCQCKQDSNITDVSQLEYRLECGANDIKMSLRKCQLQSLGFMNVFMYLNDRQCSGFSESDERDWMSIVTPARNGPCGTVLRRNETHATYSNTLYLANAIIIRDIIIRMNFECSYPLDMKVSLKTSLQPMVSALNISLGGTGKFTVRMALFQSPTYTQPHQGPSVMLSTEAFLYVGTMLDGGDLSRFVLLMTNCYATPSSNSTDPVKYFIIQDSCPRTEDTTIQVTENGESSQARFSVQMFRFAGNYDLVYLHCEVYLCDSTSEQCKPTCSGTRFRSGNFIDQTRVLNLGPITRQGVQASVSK

binding result: binds
B1: S-layer protein A (SlpA protein) of the Lactobacillus acidophilus strain L-92 (other)
chain: AVSTVSAATTINASSSAINTNTNAKYDVDVTPSVSAVAANTANNTPAIAGNLTGTISASYNGKTYTANLKADTENATITAAGSTTAVKPAELAAGVAYTVTVNDVSFNFGSENAGKTVTLGSANSNVKFTGTNSDNQTETNVSTLKVKLDQNGVASLTNVSIANVYAINTTDNSNVNFYDVTSGATVTNGAVSVNADNQGQVNVANVVAAINSKYFAAQYADKKLNTRTANTEDAIKAALKDQKIDVNSVGYFKAPHTFTVNVKATSNTNGKSATLPVVVTVPNVAEPTVASVSKRIMHNAYYYDKDAKRVGTDSVKRYNSVSVLPNTTTINGKTYYQVVENGKAVDKYINAANIDGTKRTLKHNAYVYASSKKRANKVVLKKGEVVTTYGASYTFKNGQKYYKIGDNTDKTYVKVANFR
notes: In the assays SlpA stood on the surface of whole L-92 bacterial cells, not as an isolated protein; also called surface layer protein (SlpA)
